In US20250340902A1, “GENE THERAPY FOR BVES-RELATED DISORDERS” (OHIO STATE INNOVATION FOUNDATION, priority 2022, published 2025):

What was measured:
Test in all cases: anti-HA co-IP from muscle, MS; CTRL 0
[1] = target: Phosphofurin acidic cluster sorting protein 1 (Mus musculus) (UniProt Q8K212)
[2] = target: Translocation protein SEC62 (Mus musculus) (UniProt Q8BU14)
[3] = target: E3 ubiquitin-protein ligase UBR4 (Mus musculus) (UniProt A2AN08)
[4] = target: C-type lectin domain family 3 member A (Mus musculus) (UniProt Q9EPW4)
[5] = target: mRNA turnover protein 4 homolog (Mus musculus) (UniProt Q9D0I8)
[6] = target: Dystrobrevin alpha (Mus musculus) (UniProt Q9D2N4)
[7] = target: Chloride channel protein 1 (Mus musculus) (UniProt Q64347)
[8] = target: Plasma membrane calcium-transporting ATPase 1 (Mus musculus) (UniProt G5E829)
[9] = target: CDP-diacylglycerol--inositol 3-phosphatidyltransferase (Mus musculus) (UniProt Q8VDP6)
[10] = target: Sodium/calcium exchanger 1 (Mus musculus) (UniProt P70414)
[11] = target: Long-chain specific acyl-CoA dehydrogenase, mitochondrial (Mus musculus) (UniProt P51174)
[12] = target: Band 3 anion transport protein (Mus musculus) (UniProt P04919)
[13] = target: RNA methyltransferase 10 homolog C (Mus musculus) (UniProt Q3UFY8)
[14] = target: Sodium channel protein type 4 subunit alpha (Mus musculus) (UniProt Q9ER60)
[15] = target: Serine-threonine kinase receptor-associated protein (Mus musculus) (UniProt Q9Z1Z2)
[16] = target: Vitamin K-dependent protein C (Mus musculus) (UniProt P33587)
[17] = target: Coatomer subunit delta (Mus musculus) (UniProt Q5XJY5)
Ankyrin-3 (Mus musculus) = Ankyrin-3 (Mus musculus) (UniProt G5E8K5)
[18] = target: Endoplasmic reticulum transmembrane helix translocase (Mus musculus) (UniProt Q9EPE9)
[19] = target: Popeye domain-containing protein 2 (Mus musculus) (UniProt Q9ES82)
[20] = target: Transcriptional regulator ATRX (Mus musculus) (UniProt Q61687)
Sarcospan (Mus musculus) = Sarcospan (Mus musculus) (UniProt Q62147)
[21] = target: C-1-tetrahydrofolate synthase, cytoplasmic (Mus musculus) (UniProt Q922D8)
[22] = target: ATP-sensitive inward rectifier potassium channel 11 (Mus musculus) (UniProt Q61743)
[23] = target: BAG family molecular chaperone regulator 2 (Mus musculus) (UniProt Q91YN9)
[24] = target: NADH dehydrogenase [ubiquinone] flavoprotein 1, mitochondrial (Mus musculus) (UniProt Q91YT0)
[25] = target: Glutathione S-transferase LANCL1 (Mus musculus) (UniProt O89112)
[26] = target: EH domain-containing protein 2 (Mus musculus) (UniProt Q8BH64)
[27] = target: NEDD8-conjugating enzyme Ubc12 (Mus musculus) (UniProt P61082)
[28] = target: Mannose-binding protein C (Mus musculus) (UniProt P41317)
[29] = target: Bifunctional purine biosynthesis protein ATIC (Mus musculus) (UniProt Q9CWJ9)
[30] = target: 26S proteasome non-ATPase regulatory subunit 7 (Mus musculus) (UniProt P26516)
[31] = target: Solute carrier family 12 member 2 (Mus musculus) (UniProt P55012)
[32] = target: Carboxypeptidase N catalytic chain (Mus musculus) (UniProt Q9JJN5)
[33] = target: MAP7 domain-containing protein 1 (Mus musculus) (UniProt A2AJI0)
[34] = target: Tubulin alpha-1B chain (Mus musculus) (UniProt P05213)
[35] = target: Heparin cofactor 2 (Mus musculus) (UniProt P49182)
[36] = target: RUN and FYVE domain-containing protein 1 (Mus musculus) (UniProt Q8BIJ7)

Measured: AAV9-BVES-HA (IP-MS count)

Chain of NEDD8-conjugating enzyme Ubc12 (Mus musculus) (P61082 whole entry): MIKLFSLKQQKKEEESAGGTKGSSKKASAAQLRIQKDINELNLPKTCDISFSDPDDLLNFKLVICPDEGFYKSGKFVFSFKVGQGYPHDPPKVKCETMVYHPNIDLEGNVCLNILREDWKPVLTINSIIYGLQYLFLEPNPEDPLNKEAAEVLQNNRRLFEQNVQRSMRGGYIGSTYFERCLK
Chain of RNA methyltransferase 10 homolog C (Mus musculus) (Q3UFY8 36-414 limits assumed): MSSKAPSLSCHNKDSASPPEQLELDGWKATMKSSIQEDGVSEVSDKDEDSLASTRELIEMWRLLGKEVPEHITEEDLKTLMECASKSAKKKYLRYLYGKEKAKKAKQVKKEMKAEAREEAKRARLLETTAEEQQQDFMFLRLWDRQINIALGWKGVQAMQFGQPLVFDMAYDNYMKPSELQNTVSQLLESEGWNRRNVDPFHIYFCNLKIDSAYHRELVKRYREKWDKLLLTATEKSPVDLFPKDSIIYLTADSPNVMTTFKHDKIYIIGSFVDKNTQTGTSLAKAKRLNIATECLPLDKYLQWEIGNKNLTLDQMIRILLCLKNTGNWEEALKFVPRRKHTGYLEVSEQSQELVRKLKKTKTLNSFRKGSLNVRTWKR
Chain of human BVES fused with 3xHA tag (Q8NE79 other isoform, or with tags, fused parts or gaps limits assumed): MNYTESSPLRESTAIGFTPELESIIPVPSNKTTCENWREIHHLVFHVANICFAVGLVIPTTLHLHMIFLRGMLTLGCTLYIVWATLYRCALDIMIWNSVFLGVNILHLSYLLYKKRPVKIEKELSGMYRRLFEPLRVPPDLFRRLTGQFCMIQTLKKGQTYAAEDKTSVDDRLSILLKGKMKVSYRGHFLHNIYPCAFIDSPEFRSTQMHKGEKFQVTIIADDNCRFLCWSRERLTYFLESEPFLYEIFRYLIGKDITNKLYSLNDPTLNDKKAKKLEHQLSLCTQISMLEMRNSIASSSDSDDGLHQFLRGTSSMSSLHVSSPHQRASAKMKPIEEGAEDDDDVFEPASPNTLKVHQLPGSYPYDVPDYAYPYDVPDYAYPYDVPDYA
Chain of Sodium channel protein type 4 subunit alpha (Mus musculus) (Q9ER60 whole entry): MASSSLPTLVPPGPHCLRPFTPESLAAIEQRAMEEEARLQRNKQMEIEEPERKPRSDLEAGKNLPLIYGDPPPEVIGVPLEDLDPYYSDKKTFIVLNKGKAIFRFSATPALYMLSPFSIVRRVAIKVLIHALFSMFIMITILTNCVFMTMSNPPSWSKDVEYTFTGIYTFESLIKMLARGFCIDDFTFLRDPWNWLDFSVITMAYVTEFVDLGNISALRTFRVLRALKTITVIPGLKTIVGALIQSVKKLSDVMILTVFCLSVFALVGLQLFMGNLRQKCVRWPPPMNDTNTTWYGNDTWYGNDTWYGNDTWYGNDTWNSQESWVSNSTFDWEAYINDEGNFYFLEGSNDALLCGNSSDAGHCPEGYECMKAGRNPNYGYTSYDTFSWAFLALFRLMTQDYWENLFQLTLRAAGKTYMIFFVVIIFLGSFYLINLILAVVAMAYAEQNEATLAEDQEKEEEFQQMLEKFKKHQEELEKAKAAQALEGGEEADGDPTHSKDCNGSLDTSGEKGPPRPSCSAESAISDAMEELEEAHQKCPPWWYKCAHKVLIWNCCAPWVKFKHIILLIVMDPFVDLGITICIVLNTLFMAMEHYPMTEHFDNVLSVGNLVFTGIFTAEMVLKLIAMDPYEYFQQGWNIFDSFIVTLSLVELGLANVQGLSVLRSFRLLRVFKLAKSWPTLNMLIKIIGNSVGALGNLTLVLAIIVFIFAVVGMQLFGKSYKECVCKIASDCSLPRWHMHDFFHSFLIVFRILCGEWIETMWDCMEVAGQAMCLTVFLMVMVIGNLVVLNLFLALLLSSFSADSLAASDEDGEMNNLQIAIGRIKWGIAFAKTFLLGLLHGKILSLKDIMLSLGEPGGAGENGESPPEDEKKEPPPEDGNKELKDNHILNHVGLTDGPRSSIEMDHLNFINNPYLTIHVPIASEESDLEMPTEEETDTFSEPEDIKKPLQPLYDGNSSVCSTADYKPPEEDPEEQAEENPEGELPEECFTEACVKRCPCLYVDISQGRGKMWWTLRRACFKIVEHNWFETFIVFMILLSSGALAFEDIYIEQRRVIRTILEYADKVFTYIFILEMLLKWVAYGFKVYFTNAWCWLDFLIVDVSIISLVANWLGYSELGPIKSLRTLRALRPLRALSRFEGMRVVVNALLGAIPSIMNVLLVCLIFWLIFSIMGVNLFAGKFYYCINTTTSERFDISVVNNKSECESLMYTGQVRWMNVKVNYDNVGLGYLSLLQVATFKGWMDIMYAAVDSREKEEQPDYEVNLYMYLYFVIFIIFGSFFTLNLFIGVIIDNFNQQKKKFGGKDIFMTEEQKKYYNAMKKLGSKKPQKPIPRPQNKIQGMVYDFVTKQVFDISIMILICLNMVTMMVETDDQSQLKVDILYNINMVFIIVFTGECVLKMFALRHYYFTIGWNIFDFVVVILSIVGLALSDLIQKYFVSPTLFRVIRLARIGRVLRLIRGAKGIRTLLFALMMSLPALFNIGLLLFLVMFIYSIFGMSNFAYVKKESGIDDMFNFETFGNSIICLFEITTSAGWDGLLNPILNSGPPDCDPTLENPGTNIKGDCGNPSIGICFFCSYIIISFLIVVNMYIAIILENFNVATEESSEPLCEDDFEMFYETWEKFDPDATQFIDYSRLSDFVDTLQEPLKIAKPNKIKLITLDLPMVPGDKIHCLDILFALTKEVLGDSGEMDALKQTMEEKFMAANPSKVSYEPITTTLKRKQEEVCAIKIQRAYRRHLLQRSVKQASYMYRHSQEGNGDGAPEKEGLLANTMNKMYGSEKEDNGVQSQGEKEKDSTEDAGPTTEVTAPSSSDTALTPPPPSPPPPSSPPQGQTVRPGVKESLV
Chain of Plasma membrane calcium-transporting ATPase 1 (Mus musculus) (G5E829 2-1220 limits assumed): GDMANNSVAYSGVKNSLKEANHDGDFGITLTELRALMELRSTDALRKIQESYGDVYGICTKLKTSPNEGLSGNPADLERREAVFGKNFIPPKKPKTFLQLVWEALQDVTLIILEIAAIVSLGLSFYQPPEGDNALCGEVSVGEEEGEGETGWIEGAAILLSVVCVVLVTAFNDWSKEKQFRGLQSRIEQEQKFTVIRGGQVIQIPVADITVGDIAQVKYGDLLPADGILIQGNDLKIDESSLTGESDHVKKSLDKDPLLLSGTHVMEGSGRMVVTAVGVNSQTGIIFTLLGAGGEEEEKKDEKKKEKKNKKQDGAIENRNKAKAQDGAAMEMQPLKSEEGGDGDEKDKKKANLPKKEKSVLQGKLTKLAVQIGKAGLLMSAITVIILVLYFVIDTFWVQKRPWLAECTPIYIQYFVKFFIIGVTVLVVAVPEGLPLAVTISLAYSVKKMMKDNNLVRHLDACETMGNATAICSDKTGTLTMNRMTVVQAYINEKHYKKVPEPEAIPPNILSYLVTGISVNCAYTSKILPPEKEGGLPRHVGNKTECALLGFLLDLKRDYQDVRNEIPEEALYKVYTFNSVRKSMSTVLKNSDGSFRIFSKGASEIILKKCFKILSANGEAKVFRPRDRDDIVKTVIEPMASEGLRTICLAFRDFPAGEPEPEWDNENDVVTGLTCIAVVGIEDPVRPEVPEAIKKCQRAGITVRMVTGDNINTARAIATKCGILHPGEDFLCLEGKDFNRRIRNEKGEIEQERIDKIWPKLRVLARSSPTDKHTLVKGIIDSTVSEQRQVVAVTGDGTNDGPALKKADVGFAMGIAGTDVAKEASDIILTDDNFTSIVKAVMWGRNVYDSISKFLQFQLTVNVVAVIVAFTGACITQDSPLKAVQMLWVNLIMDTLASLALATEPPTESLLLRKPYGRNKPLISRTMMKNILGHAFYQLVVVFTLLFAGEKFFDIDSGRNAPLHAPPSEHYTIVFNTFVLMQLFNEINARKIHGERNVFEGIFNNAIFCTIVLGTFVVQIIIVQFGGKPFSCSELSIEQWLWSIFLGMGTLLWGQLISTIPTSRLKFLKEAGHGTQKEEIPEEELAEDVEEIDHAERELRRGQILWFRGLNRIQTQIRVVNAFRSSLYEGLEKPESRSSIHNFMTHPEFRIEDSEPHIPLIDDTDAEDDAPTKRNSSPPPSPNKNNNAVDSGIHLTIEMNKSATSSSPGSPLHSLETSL
Chain of Bifunctional purine biosynthesis protein ATIC (Mus musculus) (Q9CWJ9 whole entry): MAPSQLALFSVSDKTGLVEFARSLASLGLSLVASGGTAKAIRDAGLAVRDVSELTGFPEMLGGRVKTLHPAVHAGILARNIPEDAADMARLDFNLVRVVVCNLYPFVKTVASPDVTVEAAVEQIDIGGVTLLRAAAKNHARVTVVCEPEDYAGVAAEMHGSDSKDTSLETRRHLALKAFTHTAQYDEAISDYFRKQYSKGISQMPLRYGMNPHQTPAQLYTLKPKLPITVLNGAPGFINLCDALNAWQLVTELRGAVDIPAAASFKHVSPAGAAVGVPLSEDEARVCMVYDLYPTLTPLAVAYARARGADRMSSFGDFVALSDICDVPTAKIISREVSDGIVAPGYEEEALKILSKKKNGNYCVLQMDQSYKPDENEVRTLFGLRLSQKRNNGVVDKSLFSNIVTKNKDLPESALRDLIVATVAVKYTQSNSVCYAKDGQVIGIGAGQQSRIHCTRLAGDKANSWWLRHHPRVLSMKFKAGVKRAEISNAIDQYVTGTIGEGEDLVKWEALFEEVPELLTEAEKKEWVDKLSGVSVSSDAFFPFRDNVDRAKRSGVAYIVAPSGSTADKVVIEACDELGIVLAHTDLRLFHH
Chain of Vitamin K-dependent protein C (Mus musculus) (P33587 42-460 limits assumed): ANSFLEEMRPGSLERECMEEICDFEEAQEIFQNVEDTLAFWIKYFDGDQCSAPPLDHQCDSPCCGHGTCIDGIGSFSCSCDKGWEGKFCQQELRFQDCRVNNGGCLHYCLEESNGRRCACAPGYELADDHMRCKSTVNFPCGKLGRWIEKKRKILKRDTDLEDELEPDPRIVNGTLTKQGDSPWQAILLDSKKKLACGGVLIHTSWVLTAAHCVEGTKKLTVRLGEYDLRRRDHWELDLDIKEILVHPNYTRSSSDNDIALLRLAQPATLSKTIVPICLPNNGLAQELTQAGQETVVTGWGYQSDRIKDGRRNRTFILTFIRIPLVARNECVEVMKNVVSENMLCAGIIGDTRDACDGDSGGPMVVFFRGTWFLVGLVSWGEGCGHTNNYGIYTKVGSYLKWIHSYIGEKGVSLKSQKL

human BVES fused with 3xHA tag (from UniProt Q8NE79 1-360)
5: [36]
34: [8]
4: [3] | [6] | [11] | [12] | [22] | [32] | [35]
3: [18] | [24] | [29] | [31]
19: [14]
29: [19]
13: [7] | [34]
242: Ankyrin-3 (Mus musculus)
6: [4] | [20] | [23] | [26]
2: all other assays above
